# In patent US8414892:
# What was measured:
# [1] = biological target: HLA class I (HLA A, B, C) (human); assay: indirect immunofluorescence
# [2] = biological target: HLA class I (HLA A, B, C) (human); assay: indirect immunofluorescence, U2OS cells
# [3] = biological target: HLA class I (HLA A, B, C) (human); assay: indirect immunofluorescence, U2OS cells recultured at 37 C after antibody binding
# [4] = biological target: FCOPC21; assay: ELISA, MoAb coated
# [5] = biological target: HOPC-1; assay: ELISA, MoAb coated
# [6] = biological target: MOPC 104E; assay: ELISA, MoAb coated
# [7] = biological target: MOPC 21; assay: ELISA, MoAb coated
# [8] = biological target: MOPC 315; assay: ELISA, MoAb coated
# [9] = biological target: MoAb 3F8; assay: ELISA, MoAb coated
# [10] = biological target: MoAb R24; assay: ELISA, MoAb coated
# [11] = biological target: TIB114; assay: ELISA, MoAb coated
# [12] = biological target: UJ 13A; assay: ELISA, MoAb coated
# [13] = biological target: monoclonal antibody 8H9; assay: ELISA, MoAb coated; ++ = OD 1~2
# [14] = biological target: monoclonal antibody 8H9; assay: FACS inhibition, 5 ug/ml 8H9 on LAN-1 cells
# [15] = biological target: monoclonal antibody 8H9; assay: FACS inhibition, 5 ug/ml 8H9 on HTB-82 cells
# [16] = biological target: 8H9 scFv-human gamma1-CH2-CH3 chimeric antibody (human); assay: FACS inhibition, 5 ug/ml 8H9-scFv-Fc on HTB82 cells
# Chain of monoclonal antibody 8H9 (VH, as listed by the source limits assumed, chain 1 of 2): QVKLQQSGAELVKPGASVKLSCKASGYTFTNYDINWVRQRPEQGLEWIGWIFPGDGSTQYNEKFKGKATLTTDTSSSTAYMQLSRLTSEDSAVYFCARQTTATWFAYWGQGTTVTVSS
# Chain of monoclonal antibody 8H9 (VL, as listed by the source limits assumed, chain 2 of 2): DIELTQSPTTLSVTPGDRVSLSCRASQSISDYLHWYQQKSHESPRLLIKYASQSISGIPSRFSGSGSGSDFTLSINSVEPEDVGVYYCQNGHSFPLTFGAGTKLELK
loss of binding after 48 h at 37 C [1],loss of binding after 48 h at 37 C [2],relative immunofluorescence remaining after 48 h [3],OD [4],OD [5],OD [6],OD [7],OD [8],OD [9],OD [10],OD [11],OD [12],OD [13],concentration of 2E9 giving almost complete inhibition of 8H9 staining [14],concentration of 2E9 without inhibition of 8H9 staining [14],concentration of 2E9 giving complete inhibition of 8H9 staining [15],concentration of 2E9 without inhibition of 8H9 staining [15],concentration of 2E9 giving complete inhibition of 8H9-scFv-Fc staining [16],Substance
85%,89%,11%,–,–,–,–,–,–,–,–,–,–,–,–,–,–,–,"anti-HLA A, B, C antibody HB-95"
–,–,–,< 0.5 od,< 0.5 od,< 0.5 od,< 0.5 od,< 0.5 od,< 0.5 od,< 0.5 od,< 0.5 od,< 0.5 od,1 to 2 od,10 µg/mL,2 µg/mL,10 µg/mL,2 µg/mL,1 µg/mL,rat anti-8H9 anti-idiotypic monoclonal antibody 2E9
